# Measured values as given in patent US20250250357A1.
# Positions count from the first letter of the chain named.
# B1: S009-F8-4.5 (antibody, human IgG1, kappa, V domains shown)
# VH: QVQLQQPGAELVKPGASVKLSCKASGYTFTIYWMHWVKQRPGQGLEWIGMIHPNSGNTNYNEKFKSKATLTVDKSSSTAYMQLSSLTSEDSAVYYCSLIHWYFDVWGTGTTVTVSS
# VL: QIVLTQSPAIMSASPGEKVTMTCSASSSVSYMYWYQQKPGSSPRLLIYDTSNLASGVPVRFSGSGSGTSYSLTISRMEAEDAATYYCQQWSSYPLTFGAGTKLELKR
# B2: S009-F8-13.8 (antibody, human IgG1, kappa, V domains shown)
# VH: EFQLQQSGPELVKPGASVKISCKASGYSFTDYNMNWVKQTNGKSLEWIGIINPNYGTSSYNQKFKGKATLTVDQSSSTAYMQLNSLTSEDSAVYYCARVGRDNSGFDYWGQGTTLTVSS
# VL: B1 VL with L95P, A99S, K102E, L105I
# B3: S009-F8-29.1 (antibody, human IgG1, kappa, V domains shown)
# VH: QVQLQQSGAELARPGASVKMSCKASGYTFISYTMHWVKQRPGQGLEWIGYINPSSGYTKYNQKFKDKATLTADKSSSTAYMQLNSLTSEDSAVYYCARYYSNPDYYAMDYWGQGTSVTVSS
# VL: B1 VL with M21I, Y33H, Y35F, S41T, R44K, L46W, D49S, V59A, W90R, A99G
# B4: S009-F8-27.1 (antibody, human IgG1, kappa, V domains shown)
# VH: EVQLVESGGGLVKPGGSLKLSCAASGFTFSSYAMSWVRQTPEKRLEWVATISDGGNYTYYPDNVKGRFTISRDNAKNNLYLQMSHLKSEDTAMYYCAGDRGYPYAMDSWGQGTSVTVSS
# VL: NIMMTQSPSSLAVSAGEKVTMSCKSSQSVLYSSNQKNYLAWYQQKPGQSPKLLIYWASTRESGVPDRFTGSGSGTDFTLTISNVHAEDLAVYYCHQYLSSLTFGAGTKLELKR
# B5: S009-F8-12.13 (antibody, human IgG1, kappa, V domains shown)
# VH: QVQLQQPGAELVKPGASVKLSCKASGYTFTSYWMHWVKQRPGQGLEWIGMIHPNSGSTNYNEKFKSKATLTVDKSSSTAYMQLSSLTSEDSAVYYCARRTPIITLVGHWYFDVWGTGTTVTVSS
# VL: DIVMTQSHKFMSTSVGDRVSITCKASQDVGTAVAWYQQKPGQSPKLLIYWASTRHTGVPDRFTGSGSGTDFTLTISNVQSEDLADYFCQQYSSYPLTFGAGTKLELKR
# B6: S009-F8-15.19 (antibody, human IgG1, kappa, V domains shown)
# VH: EFQLQQSGPELVKPGASVKISCKASGYSFTDYNMNWVKQSNGKSLEWIGIINPYYGTTSNNQNFKGKATLTVDQSSSTAYMQLNSLTSDDSAVYYCARWLRRDAMDYWGQGTSVTVSS
# VL: B5 VL with Q6P, T22A, T31S, A32S, A51T, L96W, A100G, L106I
# B7: S009-F8-18.9 (antibody, human IgG1, kappa, V domains shown)
# VH: EFQLQQSGPELVKPGASVKISCKASGYSFTDYNMNWVKQSNGKSLEWIGIINPNYGTTSYNQKFKGRATLTVDQSSSTAYVQLNSLTSEDSAVYYCARGGYDNEAMDYWGQGTSVTVSS
# VL: QIVLTQSPAIMSASPGEKVTMTCSASSSVSYMHWYQQKSGTSPKRWIYDTSKLASGVPARFSGSGSGTSYSLTISSMEAEDAATYYCQQWSSNPPTFGAGTKLELKR
# B8: S009-F8-19.21 (antibody, human IgG1, kappa, V domains shown)
# VH: B7 VH with A24T, I50V, S59G, R67K, V81M, N103G, Q111H
# VL: B7 VL with S30N, N93Y, A99G, L105I
# B9: S009-F8-36.12 (antibody, human IgG1, kappa, V domains shown)
# VH: EVQLQQSGPELVKPGASVKISCKASGYTFTDYYMNWVKQSHGKSLEWIGDINPNNGGTSYNQKFKGKATLTVDKSSSTAYMELRSLTSEDSAVYYCASWGYGSSSRGYFDYWGQGTTLTVSS
# VL: QIVLSQSPAILSASPGEKVTMTCRASSSVSYMHWYQQKPGSSPKPWIYATSNLASGVPARFSGSGSGTSYSLTISRVEAEDAATYYCQQWSSNPWTFGGGTKLEIKR
# B10: S009-F8-31.22 (antibody, human IgG1, kappa, V domains shown)
# VH: EVQLVESGGDLVKPGGSLKLSCAASGFTFSTYGMSWVRQTPDKRLEWVATISSGGSYTYYPDSLKGRFTISRDNAKNTLYLQMSSLKSEDTAMYYCARHEGYYYGKDYWGQGTTLTVSS
# VL: DIVLTQSPATLSVTPGDSVSLSCRASHSISNNLHWYQQKSHESPRLLIKYASQSISGIPSKFSGSGSGTDFTLSINSVETEDFGMYFCQQTNSWPLTFGAGTKLELKR
# B11: S009-F8-9.16 (antibody, human IgG1, kappa, V domains shown)
# VH: EVHLQQSGPVLVKPGASVKMSCKASGYTFTDYFMNWVKQSHGKSLEWIGVINPHNGYVNYNQKFQGRATLTVDKSSSTVYMELNSLTSEDSAVYHCARSAESAWFAYWGQRTLVTVSA
# VL: DVLMTQTPLSLPVSLGDQVSISCRSSQSIVHVKGNTYLEWYLQKPGQSPELLIYKVSNRFSGVPDRFSGGGSGTDFTLKISRVEPEDLGVYYCFQGSHLPYTFGGGTKLEIKR
# B12: S009-F8-5.15 (antibody, human IgG1, kappa, V domains shown)
# VH: QVQLQQPGTELVKPGASVKLSCKASGYTFTSYWMHWVKQRPGQGLEWIGHSNPSNGGTNYNEKFKSKATLTVDKSSSTAYMQLSSLTSEDSAVYYCARWVRGSNYEYFDVWGTGTTVTVSS
# VL: DIVMTQSQKFMSTTVGDRVSIICKASQNVGSAVAWCQQKPGQSPKLLIYSASNRYTGVPDRFTGSGSGTDFTLTISNMQSEDLADYFCQQYSSYPLTFAGGTKLEIKR
# B13: S009-F8-24.14 (antibody, human IgG1, kappa, V domains shown)
# VH: EFQLQQSGPELVKPGASVKISCKASGYSFTDYNMNWVKLSNGKSLEWIGVIIPNYGTSSYNQKFKGKATLTVDQSSSTAYMQLNSLTSEDSAVYYCARWDNYYGSSLDYWGQGTTLTVSS
# VL: B12 VL with I22T, S31T, C36Y, T72I, A99G, G100A, I106L
# B14: S009-F8-8.22 (antibody, human IgG1, kappa, V domains shown)
# VH: EVQLQQSGPELVKPGASVKMSCKASGYTFTDYIIHWVKQSHGKSLEWIAYIFPNNGGTGYNQKFRGKATLTVNKSSSTAYMELRSLTSEDSAVYYCARWRLRQYFDVWGTGTTVTVSS
# VL: B12 VL with T14I, I22T, S31T, C36Y, A99G
# B15: S009-F8-33.12 (antibody, human IgG1, kappa, V domains shown)
# VH: EVQLQQSGAELVKPGASVKLSCTASAFNIKDYYMHWVKQRTEQGLEWIGRIDPEDGETKYAPKFQGKATITADTSSNTAYLQLSSLTSEDTAVYYCASGSGTGAMDYWGQGTSVTVSS
# VL: DIVMTQSQKFMSTSVGDRVSITCKASQNVRTAVGWYQQKPGQSPKALIYLASNRHTGVPDRFTGSGSGTDFTLTISNVQSEDLADYFCLQHWNSPYTFGGGTKLVIKR
# B16: S009-F8-22.23 (antibody, human IgG1, kappa, V domains shown)
# VH: QVQLKQSGPGLVQPSQSLSITCTVSGFSLFSYGVHWVRQSPGKGLEWLGVIWSGGSTDYNAAFISRLSISKDNSKSQVFFKMNSLQADDTAMYYCARNGGSMITTLYYAMDYWGQGTSVTVSS
# VL: DVVMTQTPLSLPVSLGDQASISCRSSQSLVHSYGNTYLHWYLQKPGQSPKLLIYKVSNRFSGVPDRFSGSGSGTDFTLKISRVEAEDLGVYFCSQSTHIPFTFGGGTKLEIKR
# B17: S009-F8-32.3 (antibody, human IgG1, kappa, V domains shown)
# VH: QVQLKESGPGLVAPSQSLSITCTVSGFSLSSYAISWVRQPPGKGLEWLGVIWTGGGTNYNSALKSRLSISKDNSKSQVFLKMNSLQTDDTARFYCARNNYGRLDYAMDYWGQGTSVTVSS
# VL: B16 VL with S32G, Y33N, A85T, I99V, G105S
# B18: F3.80.22-H17 (scFv, not shown: small tags and cut ends)
# scFv: EVQLVQSGAEVKKPGATVKISCKVSGYTFTDYEIHWVQQAPGKGLEWMGAFDPEIGGSAYNQKFKDRVTITADKSTDTAYMELSSLRSEDTAVYYCTDYYGSSSGYFDVWGQGTTVTVSSGGGGSGGGGSGGGGSDIVMTQTPLSLPVTPGEPASISCRSSQSLEHNDGNTYLHWFLQKPGQSPQLLIYKVSNRFSGVPDRFSGSGSGTDFTLKISRVEAEDVGVYYCSQSTHVPFTFGQGTKLEIK
# B19: F3.80.22-H1 (scFv, not shown: small tags and cut ends)
# scFv: DIVMTQTPLSLPVTPGEPASISCRSSQSLEHNNGNTYLHWFLQKPGQSPQLLIYKVSNRFSGVPDRFSGSGSGTDFTLKISRVEAEDVGVYYCSQSTHVPFTFGQGTKLEIKGGGGSGGGGSGGGGSEVQLVQSGAEVKKPGATVKISCKVSGYTFTDYEIHWVQQAPGKGLEWMGAFDPEIGGSAYNQKFKDRVTITADKSTDTAYMELSSLRSEDTAVYYCTDYYGSSSGYFDVWGQGTTVTVSS
# B20: F3.80.22-H4 (scFv, not shown: small tags and cut ends)
# scFv: B19 scFv with V151A, T203S, D204S, Q239T
# B21: F3.80.22-H6 (scFv, not shown: small tags and cut ends)
# scFv: B19 scFv with N33D, V151A, D204S
# B22: F3.80.22-H7 (scFv, not shown: small tags and cut ends)
# scFv: B19 scFv with N33D, V151A, D204S, Q239T
# B23: F3.80.22-H8 (scFv, not shown: small tags and cut ends)
# scFv: B19 scFv with N33D, V151A, T203S, D204S, Q239T
# B24: F3.80.22-H2 (scFv, not shown: small tags and cut ends)
# scFv: B19 scFv with V151A, D204S
# B25: F3.80.22-H3 (scFv, not shown: small tags and cut ends)
# scFv: B19 scFv with V151A, D204S, Q239T
# Target: monkey MSLN full-length protein expressed on HEK293T cells (HEK293T-monkey MSLN) (monkey)
# Experiment: FACS on HEK293T-monkey MSLN cells
Binder,EC50,Maximum mean fluorescence intensity
B1,0.64 nM,35000
B2,0.15 nM,20500
B3,,80
B4,2.05 nM,31300
B5,0.08 nM,21500
B6,0.39 nM,28200
B7,0.81 nM,24900
B8,0.3 nM,24900
B9,,173
B10,,3390
B11,,348
B12,0.18 nM,20200
B13,0.52 nM,105000
B14,0.36 nM,112000
B15,0.64 nM,106000
B16,1.09 nM,114000
B17,0.69 nM,112000

# Target: human MSLN on OVCAR3 tumor cells (human) (UniProt Q13421)
# Experiment: FACS, OVCAR3 cells
# human MSLN on OVCAR3 tumor cells (human), sequence (Q13421 other isoform, or with tags, fused parts or gaps): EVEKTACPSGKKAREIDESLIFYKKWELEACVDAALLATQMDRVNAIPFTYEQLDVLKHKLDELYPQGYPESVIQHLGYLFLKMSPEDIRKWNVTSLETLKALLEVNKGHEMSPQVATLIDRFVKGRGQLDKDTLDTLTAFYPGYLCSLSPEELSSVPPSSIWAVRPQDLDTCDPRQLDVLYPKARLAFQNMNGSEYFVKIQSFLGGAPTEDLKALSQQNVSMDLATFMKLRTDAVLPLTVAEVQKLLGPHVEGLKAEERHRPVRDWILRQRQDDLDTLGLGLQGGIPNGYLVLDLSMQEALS
row,Binder,Maximum MFI
1,B18,456 MFI
2,B19,471 MFI
3,B20,505 MFI
4,B21,473 MFI
5,B22,479 MFI
6,B23,502 MFI
7,B24,512 MFI
8,B25,502 MFI
